Source: US20230265179A1 (TWIST BIOSCIENCE, published 2023)

T1: IL1RL1 (UniProt Q01638 19-328, limits assumed)
T1 construct: SPR analyte
T1 sequence (looked up): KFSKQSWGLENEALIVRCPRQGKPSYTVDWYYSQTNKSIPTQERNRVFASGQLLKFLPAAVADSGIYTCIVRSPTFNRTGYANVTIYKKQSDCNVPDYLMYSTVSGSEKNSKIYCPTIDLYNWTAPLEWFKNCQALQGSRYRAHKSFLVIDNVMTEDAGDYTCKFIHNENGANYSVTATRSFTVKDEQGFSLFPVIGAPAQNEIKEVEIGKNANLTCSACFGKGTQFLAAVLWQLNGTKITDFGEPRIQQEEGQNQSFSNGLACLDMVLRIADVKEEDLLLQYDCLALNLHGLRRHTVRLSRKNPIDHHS

T2: IL1RL1 over-expressed on Expi293 cells (UniProt Q01638 19-556, limits assumed)
T2 construct: whole, on cells; Target of the flow cytometry MFI ratio (over-expressing cells over parent cells); also called cytokine over-expressing Expi293 cells
T2 sequence (looked up): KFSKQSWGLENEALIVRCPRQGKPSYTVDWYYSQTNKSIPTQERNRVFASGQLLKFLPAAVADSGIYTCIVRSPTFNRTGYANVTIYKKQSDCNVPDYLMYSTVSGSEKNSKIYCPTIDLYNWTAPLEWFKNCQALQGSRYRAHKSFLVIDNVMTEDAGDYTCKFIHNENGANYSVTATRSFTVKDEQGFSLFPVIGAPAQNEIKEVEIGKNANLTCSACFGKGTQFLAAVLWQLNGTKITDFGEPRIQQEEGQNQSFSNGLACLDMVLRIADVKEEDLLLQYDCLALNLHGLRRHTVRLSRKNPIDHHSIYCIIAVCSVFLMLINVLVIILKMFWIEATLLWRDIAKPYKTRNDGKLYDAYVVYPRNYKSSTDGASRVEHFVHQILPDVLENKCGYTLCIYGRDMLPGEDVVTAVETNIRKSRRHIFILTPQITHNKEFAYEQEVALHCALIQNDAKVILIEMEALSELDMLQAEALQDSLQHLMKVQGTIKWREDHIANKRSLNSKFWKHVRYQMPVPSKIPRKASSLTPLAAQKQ


Tests used:
IL1RL1 = target: T1, IL1RL1; assay: SPR (Carterra LSA), antibody amine-coupled, 1:1 model;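 also: HC30M sensor chip at 25 °C in HBS-TE, analyte at rising concentrations in buffer containing 0.5 mg/mL BSA, 5 min association then 15 min dissociation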
Description: SPR experiments were performed on a Carterra LSA SPR biosensor equipped with a HC30M chip at 25° C. in HBS-TE. Antibodies were diluted to 10 μg/mL and amine-coupled to the sensor chip by EDC/NHS activation, followed by ethanolamine HCl quenching. Increasing concentrations of analyte were flowed over the sensor chip in HBS-TE with 0.5 mg/mL BSA with 5-minute association and 15-minute dissociation. Following each injection cycle the surface was regenerated with 2× 30-second injections of IgG elution buffer (Thermo). Data were analyzed in Carterra's Kinetics Tool software with 1:1 binding model.

[1] = target: T2, IL1RL1 over-expressed on Expi293 cells; assay: flow cytometry, 100 nM antibody, over-expressing Expi293 / parent cells
Description: All incubations and washes were in buffer containing PBS+1% BSA. MFI Ratio is defined by the mean fluorescence intensity (MFI) of the cytokine over-expressing Expi293 cell over the Expi293 parent cell. […] EC50 was calculated in GraphPad Prism.

| Binder | Kd (IL1RL1) | koff (IL1RL1) | kon (IL1RL1) | 100 nM FACS (MFI Ratio) [1] |
| --- | --- | --- | --- | --- |
| IL1RL1-1 (Fc fusion, not shown: a dimerising Fc or GST, VHH-Fc on IgG2 Fc) VHH: EVQLVESGGGLVQPGGSLRLSCAASGFTLDAWPMSWFRQAPGKEREVVAVIYTSDGSTYYADSVKGRFTISADNSKNTAYLQMNSLKPEDTAVYYCAASKWYGGFGDTDIEWGQGTLVTVSS | 0.584 nM | 0.000101 s⁻¹ | 172000 M⁻¹ s⁻¹ | 660 MFI ratio |
| IL1RL1-86 (Fc fusion, not shown: a dimerising Fc or GST, VHH-Fc on IgG2 Fc) VHH: EVQLVESGGGLVQPGGSLRLSCAASGGTFSTYAMGWFRQAPGKEREWVASISTSGSTITPYADSVKGRFTISADNSKNTAYLQMNSLKPEDTAVYYCAAIAYEEGVYRWDWGQGTLVTVSS | ≤ 0.0762 nM | ≤ 1e-05 s⁻¹ | 131000 M⁻¹ s⁻¹ | 204 MFI ratio |
| IL1RL1-2 (Fc fusion, not shown: a dimerising Fc or GST, VHH-Fc on IgG2 Fc) VHH: EVQLVESGGGLVQPGGSLRLSCAASGGTFSAYAMGWFRQAPGKEREWVASISTSGSTITPYADSVKGRFTISADNSKNTAYLQMNSLKPEDTAVYYCAAIAYEEGVYRWDWGQGTLVTVSS | 0.265 nM | 3.11e-05 s⁻¹ | 118000 M⁻¹ s⁻¹ | 277 MFI ratio |
| IL1RL1-18 (Fc fusion, not shown: a dimerising Fc or GST, VHH-Fc on IgG2 Fc) VHH: EVQLVESGGGLVQPGGSLRLSCAASGVTLDLYAMGWFRQAPGKEREWVASISTSGSTITPYADSVKGRFTISADNSKNTAYLQMNSLKPEDTAVYYCAAIAHEEGVYRWDWGQGTLVTVSS | 0.312 nM | 3.95e-05 s⁻¹ | 126000 M⁻¹ s⁻¹ | 277 MFI ratio |
| IL1RL1-52 (Fc fusion, not shown: a dimerising Fc or GST, VHH-Fc on IgG2 Fc) VHH: EVQLVESGGGLVQPGGSLRLSCAASGGTISTYAMGWFRQAPGKEREWVASISTSGSTITPYADSVKGRFTISADNSKNTAYLQMNSLKPEDTAVYYCAAIAYEEGVYRWDWGQGTLVTVSS | 0.121 nM | 3.48e-05 s⁻¹ | 288000 M⁻¹ s⁻¹ | 225 MFI ratio |
| IL1RL1-81 (Fc fusion, not shown: a dimerising Fc or GST, VHH-Fc on IgG2 Fc) VHH: EVQLVESGGGLVQPGGSLRLSCAASGVTLDLYAMGWFRQAPGKEREWVASISTSGSTITPYADSVKGRFTISADNSKNTAYLQMNSLKPEDTAVYYCAAIAYEEGVYRWDWGQGTLVTVSS | 0.285 nM | 4.51e-05 s⁻¹ | 159000 M⁻¹ s⁻¹ | 217 MFI ratio |
| IL1RL1-82 (Fc fusion, not shown: a dimerising Fc or GST, VHH-Fc on IgG2 Fc) VHH: EVQLVESGGGLVQPGGSLRLSCAASGRTFSTLAMGWFRQAPGKEREWVASISTSGSTITPYADSVKGRFTISADNSKNTAYLQMNSLKPEDTAVYYCAAIAYEEGVYRWDWGQGTLVTVSS | ≤ 0.128 nM | ≤ 1e-05 s⁻¹ | 78400 M⁻¹ s⁻¹ | 344 MFI ratio |
| IL1RL1-3 (Fc fusion, not shown: a dimerising Fc or GST) VHH: EVQLVESGGGLVQPGGSLRLSCAASGRTFSMGWFRQAPGKEREWVSSIGIAGTPTFYADSVKGRFTISADNSKNTAYLQMNSLKPEDTAVYYCASTDDYGVDWGQGTLVTVSS | ≤ 0.0524 nM | ≤ 1e-05 s⁻¹ | 191000 M⁻¹ s⁻¹ | 492 MFI ratio |
| IL1RL1-5 (Fc fusion, not shown: a dimerising Fc or GST, VHH-Fc on IgG2 Fc) VHH: EVQLVESGGGLVQPGGSLRLSCAASGRTFSSIVMGWFRQAPGKEREMVAVIIDSRTTKYADSVKGRFTISADNSKNTAYLQMNSLKPEDTAVYYCAAVGGATTVTASEWDWGQGTLVTVSS | 0.846 nM | 0.000162 s⁻¹ | 191000 M⁻¹ s⁻¹ | 508 MFI ratio |
| IL1RL1-214 (antibody, V domains shown, IgG2) VH: EVQLLESGGGLVQPGGSLRLSCAASGFTFNAYPMTWVRQAPGKGLEWVSAISGRGDNTYYADSVKGRFTISRDNSKNTLYLQMNSLRAEDTAVYYCARPPKRGPRFDYWGQGTLVTVSS VL: DIQMTQSPSSLSASVGDRVTITCKASENVDTYVSWYQQKPGKAPKLLIYGRNKRPSGVPSRFSGSGSGTDFTLTISSLQPEDFATYYCQQGHTLPWTFGQGTKVEIK | – | – | – | 1.34 MFI ratio |
| IL1RL1-221 (antibody, V domains shown, IgG2) VH: EVQLLESGGGLVQPGGSLRLSCAASGFTFPKYDMMWVRQAPGKGLEWVSSIRGSSSSTYYADSVKGRFTISRDNSKNTLYLQMNSLRAEDTAVYYCARAGRILFDYWGQGTLVTVSS VL: DIQMTQSPSSLSASVGDRVTITCRASQTIERRLNWYQQKPGKAPKLLIYGRNKRPSGVPSRFSGSGSGTDFTLTISSLQPEDFATYYCGQSYRYPLTFGQGTKVEIK | – | – | – | 0.51 MFI ratio |
| IL1RL1-230 (antibody, V domains shown, IgG2) VH: EVQLLESGGGLVQPGGSLRLSCAASGFTFSGYIMAWVRQAPGKGLEWVSSISSTGFKTYYADSVKGRFTISRDNSKNTLYLQMNSLRAEDTAVYYCAKGNSRYVFDYWGQGTLVTVSS VL: DIQMTQSPSSLSASVGDRVTITCKASDHIGKFLTWYQQKPGKAPKLLIYGRNKRPSGVPSRFSGSGSGTDFTLTISSLQPEDFATYYCNSRDTSGLHYVFGQGTKVEIK | – | – | – | 1.43 MFI ratio |
| IL1RL1-239 (antibody, V domains shown, IgG2) VH: EVQLLESGGGLVQPGGSLRLSCAASGFTFRRYVMGWVRQAPGKGLEWVSSISGSSGTTYYADSVKGRFTISRDNSKNTLYLQMNSLRAEDTAVYYCAKAYYGGFDYWGQGTLVTVSS VL: DIQMTQSPSSLSASVGDRVTITCSASSSVSSSYLHWYQQKPGKAPKLLIYRKSNRPSGVPSRFSGSGSGTDFTLTISSLQPEDFATYYCQQSYSTPTFGQGTKVEIK | – | – | – | 1.93 MFI ratio |
| IL1RL1-245 (antibody, V domains shown, IgG2) VH: EVQLLESGGGLVQPGGSLRLSCAASGFTLSSYAMSWVRQAPGKGLEWVSGITRSGSTNYRDSVKGRFTISRDNSKNTLYLQMNSLRAEDTAVYYCAKFPFTHGKFDYWGQGTLVTVSS VL: DIQMTQSPSSLSASVGDRVTITCRASQGVRTSLAWYQQKPGKAPKLLIYRASTLASGVPSRFSGSGSGTDFTLTISSLQPEDFATYYCASRSSKGNPHVLFGQGTKVEIK | – | – | – | 1.28 MFI ratio |
| IL1RL1-252 (antibody, V domains shown, IgG2) VH: EVQLLESGGGLVQPGGSLRLSCAASGFTFSRYHIEWVRQAPGKGLEWVSAISGRGDNTYYADSVKGRFTISRDNSKNTLYLQMNSLRAEDTAVYYCARHKGLQPLDYWGQGTLVTVSS VL: DIQMTQSPSSLSASVGDRVTITCRASQDVSSGVAWYQQKPGKAPKLLIYPKHNRPPGVPSRFSGSGSGTDFTLTISSLQPEDFATYYCSARSVRGNPHVLFGQGTKVEIK | – | – | – | 0.58 MFI ratio |
| IL1RL1-256 (antibody, V domains shown, IgG2) VH: EVQLLESGGGLVQPGGSLRLSCAASGFTFDRYRMTWVRQAPGKGLEWVSSIGANGAPTYYADSVKGRFTISRDNSKNTLYLQMNSLRAEDTAVYYCARGRLFDYWGQGTLVTVSS VL: DIQMTQSPSSLSASVGDRVTITCQGASLRNYYASWYQQKPGKAPKLLIYGNNNRPSGVPSRFSGSGSGTDFTLTISSLQPEDFATYYCASRSSKGNPHVLFGQGTKVEIK | – | – | – | 0.6 MFI ratio |
| IL1RL1-257 (antibody, V domains shown, IgG2) VH: EVQLLESGGGLVQPGGSLRLSCAASGFTFSPRRMSWVRQAPGKGLEWVSAITGSGGSTYYADSVKGRFTISRDNSKNTLYLQMNSLRAEDTAVYYCARGRLFDYWGQGTLVTVSS VL: DIQMTQSPSSLSASVGDRVTITCRASQSISGYLNWYQQKPGKAPKLLIYGNNNRPSGVPSRFSGSGSGTDFTLTISSLQPEDFATYYCSQNTHVPYTFGQGTKVEIK | – | – | – | 1.38 MFI ratio |
| IL1RL1-262 (antibody, V domains shown, IgG2) VH: EVQLLESGGGLVQPGGSLRLSCAASGFTFSRYAMNWVRQAPGKGLEWVSAISGSGGNTYYADSVKGRFTISRDNSKNTLYLQMNSLRAEDTAVYYCARVWRNSLDYWGQGTLVTVSS VL: DIQMTQSPSSLSASVGDRVTITCSGDRLGEKYVSWYQQKPGKAPKLLIYENNNRPSGVPSRFSGSGSGTDFTLTISSLQPEDFATYYCVARAVRGNPHVLFGQGTKVEIK | – | – | – | 6.04 MFI ratio |
| IL1RL1-269 (antibody, V domains shown, IgG2) VH: EVQLLESGGGLVQPGGSLRLSCAASGFTFDRYRMMWVRQAPGKGLEWVSAITGSGGSTYYADSVKGRFTISRDNSKNTLYLQMNSLRAEDTAVYYCAKGLRRFDYWGQGTLVTVSS VL: DIQMTQSPSSLSASVGDRVTITCRASQSVDRYFNWYQQKPGKAPKLLIYGKNIRPSGVPSRFSGSGSGTDFTLTISSLQPEDFATYYCGQSYRYPLTFGQGTKVEIK | – | – | – | 0.85 MFI ratio |
| IL1RL1-270 (antibody, V domains shown, IgG2) VH: EVQLLESGGGLVQPGGSLRLSCAASGFTFSRYFMGWVRQAPGKGLEWVSGITRSGSTNYRDSVKGRFTISRDNSKNTLYLQMNSLRAEDTAVYYCAKGPGTRGDYWGQGTLVTVSS VL: DIQMTQSPSSLSASVGDRVTITCRASQPIGPDLLWYQQKPGKAPKLLIYGASRLQRGVPSRFSGSGSGTDFTLTISSLQPEDFATYYCASRNGWNHVVFGQGTKVEIK | – | – | – | 0.31 MFI ratio |
